Measurements taken from publication PMC11169341.

Molecular target: T1, B7H3 on Weri-RB1 cells (UniProt Q5ZPR3)
T1 sequence: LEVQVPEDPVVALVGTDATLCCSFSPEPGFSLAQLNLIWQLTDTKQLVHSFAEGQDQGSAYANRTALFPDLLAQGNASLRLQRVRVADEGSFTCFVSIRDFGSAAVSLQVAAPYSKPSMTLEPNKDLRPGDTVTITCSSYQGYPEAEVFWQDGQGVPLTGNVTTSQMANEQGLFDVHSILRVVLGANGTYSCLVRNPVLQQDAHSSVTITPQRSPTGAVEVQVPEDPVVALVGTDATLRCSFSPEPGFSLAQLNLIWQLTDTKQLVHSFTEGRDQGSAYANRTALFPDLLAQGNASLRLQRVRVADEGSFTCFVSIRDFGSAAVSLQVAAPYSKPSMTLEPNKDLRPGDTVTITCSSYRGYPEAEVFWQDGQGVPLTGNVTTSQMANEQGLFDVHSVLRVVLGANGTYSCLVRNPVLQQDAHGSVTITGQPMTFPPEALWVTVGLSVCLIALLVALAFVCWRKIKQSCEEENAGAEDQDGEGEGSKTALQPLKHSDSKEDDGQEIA
Experiment: flow cytometry
Details: FITC aptamer, ABB: AWB (composition not given) + 0.1 mg/ml yeast tRNA, 0.1 mg/ml salmon sperm DNA, 5% FBS, 1 mg/ml BSA, 60 min, 0-500 nM …, flow binding assay on ice, d

Sequence	Kd [µM]
TAGGGAAGAGAAGGACATATGATACAGCACGGTATGACGAGTCCATTGTGTGTGCAGCTCGCTAATTGACTAGTACATGACCACTT [VRF-HS_B7H3-01]	0.0321
TAGGGAAGAGAAGGACATATGATATAAGTGACACATCAATCTCATGCGGATGAACCAGTGCGTTTGACTAGTACATGACCACTT [VRF-HS_B7H3-03]	0.0466
TAGGGAAGAGAAGGACATATGATCGCCCCTCTTTTCGATTTCAAGCTCCTAACCCACACCTCTTTGACTAGTACATGACCACTT [VRF-HS_B7H3-02]	0.0472
TAGGGAAGAGAAGGACATATGATTGAGAAGTCACGCCACTTACCTGCGCTCAAAACCTCAGAATTGACTAGTACATGACCACTT [VRF-HS_B7H3-05]	0.0506
TAGGGAAGAGAAGGACATATGATTGCCCCTGACACTTACACGCCACTATCAAGGCACACGCCATTGACTAGTACATGACCACTT [VRF-HS_B7H3-04]	0.0514
